Test results published in PMC7990167, “An antibody targeting type III secretion system induces broad protection against Salmonella and Shigella infections” (PLoS Neglected Tropical Diseases, 2021).
Several values for one entry are separate records, joined by “and”; a condition that tells them apart may be missing. Equal values may be shown once.

Target: T1, IpaD (wild type, Shigella flexneri) expressed on the surface of yeast cells (Shigella flexneri, gene synthesized …, UniProt P18013)
T1 construct: IpaD of Shigella flexneri; also called wild-type IpaD; needle tip protein of the Shigella type III secretion system
T1 sequence (P18013 whole entry): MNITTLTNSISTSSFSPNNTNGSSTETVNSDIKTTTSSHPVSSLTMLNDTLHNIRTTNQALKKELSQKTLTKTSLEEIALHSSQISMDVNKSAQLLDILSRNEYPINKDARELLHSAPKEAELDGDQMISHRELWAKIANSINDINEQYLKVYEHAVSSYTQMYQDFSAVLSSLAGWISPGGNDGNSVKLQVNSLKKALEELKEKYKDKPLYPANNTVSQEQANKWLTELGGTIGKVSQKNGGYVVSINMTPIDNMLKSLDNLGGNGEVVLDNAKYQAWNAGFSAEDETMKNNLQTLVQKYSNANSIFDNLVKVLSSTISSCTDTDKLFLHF
Experiment: flow cytometry on cells; wild-type IpaD on the surface of yeast cells, increasing concentrations of the VHH, fluorescence by FACS; apparent KD, one site-specific binding model (PRISM)
Conditions: one partner purified

B1: VHH-20ipaD (VHH)
VHH: QVQLVESGGGLVQAGGSLRLSCAVSGLEMQSHAIGWFRQAPGKEREGVSCINDDGSTTRYADSVKGRFTISRDNAKNTVYLQMNSLKPEDTAVYFCAAKSVWFCSVIRSHEFNSWGQGTQVTVSS
notes: the VHH chain is in the complex IpaD/VHH-20ipaD, PDB 5VXM; Monomeric fractions of the gel filtration were pooled; source: E. coli BL21, purified (TEV cleavage, HisTrap flow-through, gel filtration)
B1 was tested, and the Kd was 1.16 nM and 1.15 nM.
